In the RNAGym collection of RNA variant scans (doi:10.1073/pnas.2313332121):
Variants at the floor of the assay were thinned out.

B1: TPR 5TU (parent)
chain: GGAUCUUCUCGAUCUAACAAAAAAGACAAAUCUGCCACAAAGCUUGAGAGCAUCUUCGGAUGCAGAGGCGGCAGCCUUCGGUGGCGCGAUAGCGCCAACGUUCUCAACUAUGACACGCAAAACGCGUGCUCCGUUGAAUGGAGUUUAUCAUG

Variants of: B1
Test: polymerase ribozyme fitness, log enrichment relative to wild type (log ratio); higher = more active; in vitro selection for triplet polymerase activity
Procedure, shortened: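 Each subunit of a heterodimeric triplet polymerase ribozyme was represented by a PCR-built, transcribed mutant library that underwent triplicate single-round in vitro selection with frozen incubation at −7 °C. Extended constructs were recovered by gel excision, streptavidin-bead capture and RT-PCR, and Illumina sequencing of input and output libraries kept genotypes with ≥10 input reads and ≥1 read per output. Fitness is the logarithm of genotype enrichment relative to wild-type enrichment, from inverse-variance-weighted replicate averages, with a logarithm base of 2.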
For GGAUCUUCUCGAUCUAACAAAAAAGACAAAUCUGCCACAAAGCUUGCGAGCAUCUUCGGAUGCAGAGGCGGCAGCCUUCGGUGGGGCGAUAGCGCAAGCGUUCUCAACUAUGACACGCAAAACGCGUGCUCCGUUGAAUGGAGUUUAUCAUG [A47C C85G C96A A98G], the “polymerase ribozyme fitness (log ratio)” value was no more than -4.2. With GGAUCUUCUCGAUCUAACAAAAAAGACAAAUCUGCCACAAAGCUUGCGAGCAUCUUCGGAUGCAGAGGCGGUAGCCUUCGGUGGCGCGAUAGCUCCAACGUCCUCAACUAUGACACGCAAAACGCGUGCUCCGUUGAAUGGAGUUUAUCAUG [A47C C72U G94U U102C] the “polymerase ribozyme fitness (log ratio)” value was no more than -4.2. For GGAUCUUCUCGAUCUAACAAAAAAGACAAAUCUGCCACAAAGCUUGCGAGCAUCUUCGGAUGCAGAGGCGGCAGCCUUCGGUGGCGCGAUAGCGCCAACGUUCUCAAUUAUGACACGCAAAACGCGUGCUCCGUUGAAUGGAGUUCAUCAUG [A47C C108U U146C], the “polymerase ribozyme fitness (log ratio)” value was -3.2. For GGAUCUUCUCGAUCUAACAAAAAAGACAAAUCUGCCACAAAGCUUGCGAGCAUCUUCUGAUGCAGAGGCGGCAGCCUUCGGUGGCGCGAUAUCGCCUACGUUCUCAACUAUGACACGCAAAACGCGUGCUCCGUUGAAUGGAGUUUAUCAUG [A47C G58U G92U A97U], the “polymerase ribozyme fitness (log ratio)” value was -1.96. For GGAUCUUCUCGAUCUAACAAAAAAGACAAAUCUGCCACAAAGCUUGCGAGCAUCUUCGGAUGCAGAGGCGGCAGCCUUCGGUGGCGCGAUAGCGCCAACGUUCUCAACUUUGACACGCAAAACGCGUGCUCCGUUGAAUGGAGUUUAUCAUG [A47C A110U], the “polymerase ribozyme fitness (log ratio)” value was no more than -4.2. With GGAUCUUCUCGAUCUAACAAAAAAGACAAAUCUGCCACAAAGCUUGCGAGCAUCUUCGGAUGCAGAGGCGGCAGCCUUCGGUGGCGAGAUAGCGCCAAUGUUCUCAACUAUGACACGCAAAACGCGUGCUCCGUUUAAUGCAGUUUAUCAUG [A47C C87A C99U G136U G141C] the “polymerase ribozyme fitness (log ratio)” value was no more than -4.2. With GGAUCUUCUCGAUCUAACAAAAAAGACAAAUCUGCCACAAAGCUUGCGAGCAUCUUCGGAUGCAGAGGCGGCUGCCUUCGGUCGCGCGAUAGCGCCAACGUUCUCAACUAUGACACGAAAAACGCGUGCUCCGUUGAAUGGAGUUUAUCAUG [A47C A73U G83C C118A] the “polymerase ribozyme fitness (log ratio)” value was no more than -4.2. With GGAUCUUCUCGAUCUAACAAAAAAGACAAAUCUGCCACAAAGCUUGCGAACAUCUUCGGAUGCAGAGGCGGCAGCCUUCGGUGGCGCGAUAUCGCCAACGUUCUCAACUAUGACACGCAAAACGCGUGCUCCGUUGAAUGGAGUUUAUCAUG [A47C G50A G92U] the “polymerase ribozyme fitness (log ratio)” value was -1.37. In the case of GGAUCUUCUCGAUCUAACAAAAAAGACAAAUCUGCCACAAAGCUUGCGAGCAUCUUCGGAUGCAGAGGCGGUAGCCUUCGGUGGCGCGAUAACGCCAACGUUCUCAACUAUGACACGCAAAACGCGUGCUCCGUUGAAUGGAGUUUAUCAUG [A47C C72U G92A], the “polymerase ribozyme fitness (log ratio)” value is reported as -3.53. In the case of GGAUCUUCUCGAUCUAACAAAAAAGACAAAUCUGCCACAAAGCUUGCGAGCAUCUUCGAAUGCAGAGGCGGCAGCCUUCGGUGGGGCGAUAGCGCCAACGUUCUCAACUAUGACACGCAAAACGCGUGCUCCGUUGAAUGGAGUUUAUCAUG [A47C G59A C85G], the “polymerase ribozyme fitness (log ratio)” value is reported as -2.62. With GGAUCUUCUCGAUCUAACAAAAAAGACAAAUCUGCCACAAAGCUUGCGAGCAUCUUCGGAUGCAGAGGCGGCAGCCUUCGGUGGCGCGAUCGCGCCAACGUUCUGAACUAUGACACGCAGAACGCGUGCUCCGUUGAAUGGAUUUUAUCAUG [A47C A91C C105G A120G G143U] the “polymerase ribozyme fitness (log ratio)” value was no more than -4.2. For GGAUCUUCUCGAUCUAACAAAAAAGACAAAUCUGCCACAAAGCUUGCGACCCUCUUCGGAUGCAGAGGCGGCAGCCUUCGGUGGGGCGAUAGCGCCAACGUUCUAAACUAUGACACGCAAAACGCGUGCUCCGUUGAAUGUAGUUUAUCAUG [A47C G50C A52C C85G C105A G141U], the “polymerase ribozyme fitness (log ratio)” value was no more than -4.2. In the case of GGAUCUUCUCGAUCUAACAAAAAAGACAAAUCUGCCACAAAGCUUGCGAUCAUCUUCGAAUGCAGAGGCAGCAGCCUUUGGGGGCGCGAUAGCGUCAACGUUCUCAACUAUGACACGCAAAACACGUGCUCCGUUGAAUGGAGGUUAUCAUG [A47C G50U G59A G70A C79U U82G C95U G124A U144G], the “polymerase ribozyme fitness (log ratio)” value is reported as no more than -4.2. For GGAUCUUCUCGAUCUAACAAAAAAGACAAAUCUGCCACAAAGCUUGCGAGUCUCUUCGGAUGCAGAGGCGGCAGACUUCGGUGGCGCGAUAGCGCUAACGUUAUCAACUCUGACACGCAAAACGCGUGCUCCGUUGAAUGGAGUUUAUCAUG [A47C C51U A52C C75A C96U C103A A110C], the “polymerase ribozyme fitness (log ratio)” value was no more than -4.2. For GGAUCUUCUCGAUCUAACAAAAAAGACAAAUCUGCCACAAAGCUUGCUAACAUCAUCGGAUGCAGAGGCGGCAGCCUUCGGUGGCGCGAUAGCACCAACGUUCUCAACUAUGACACGCAAAACGCGUGCUCCGUUGAAUGGAGUUUAUCAUG [A47C G48U G50A U55A G94A], the “polymerase ribozyme fitness (log ratio)” value was no more than -4.2. For GGAUCUUCUCGAUCUAACAAAAAAGACAAAUCUGCCACAAAGCUUGCGAGCAUCUUCGGAUGCAGAGGCGGCAGCAUUCGGUGGCGGGAUAGCGCUAACGUUCUCAACUAUGACGCGCAAAACGCGUGCUCCGUUGAAUGGAGUUUAUCAUG [A47C C76A C87G C96U A115G], the “polymerase ribozyme fitness (log ratio)” value was no more than -4.2. In the case of GGAUCUUCUCGAUCUAACAAAAAAGACAAAUCUGCCACAAAGCUUGCGAACAUCUUCGGAUGCAGAGGCGGCAGCCUUCGGUGGCGCGAUAGCGCCAACGUUCUCAACUAUGACACGCAAAACGCGUGCUCCGUUGAAUGGAGUUUAUCAUG [A47C G50A], the “polymerase ribozyme fitness (log ratio)” value is reported as -1.47. For GGAUCUUCUCGAUCUAACAAAAAAGACAAAUCUGCCACAAAGCUUGCUAGCAUCUUCGGAUGCAGAGGCGGCAGUCAUCGGUCGCGCGAUAGCGCAAAAGUUCUCAACUAUGACACGCAAAACGCGUGCUCCGUUGAAUGGAGUUUAUCAUG [A47C G48U C75U U77A G83C C96A C99A], the “polymerase ribozyme fitness (log ratio)” value was no more than -4.2. In the case of GGAUCUUCUCGAUCUAACAAAAAAGACAAAUCUGCCACAAAGCUUGCGAGCAUCUUCGGAUGCAGAGGCGGCAGCCUUCGGUGGCGCGAUAGCGCUAACGUUCUCAACUAUGACACGCAAAACGCGUGCUCCGUUGAAUGGAGUUUAUCAUG [A47C C96U], the “polymerase ribozyme fitness (log ratio)” value is reported as 0.15.
